According to article PMC12866682 (2025):

T1: Purified human MPO (human, UniProt P05164 49-745)
T1 chain: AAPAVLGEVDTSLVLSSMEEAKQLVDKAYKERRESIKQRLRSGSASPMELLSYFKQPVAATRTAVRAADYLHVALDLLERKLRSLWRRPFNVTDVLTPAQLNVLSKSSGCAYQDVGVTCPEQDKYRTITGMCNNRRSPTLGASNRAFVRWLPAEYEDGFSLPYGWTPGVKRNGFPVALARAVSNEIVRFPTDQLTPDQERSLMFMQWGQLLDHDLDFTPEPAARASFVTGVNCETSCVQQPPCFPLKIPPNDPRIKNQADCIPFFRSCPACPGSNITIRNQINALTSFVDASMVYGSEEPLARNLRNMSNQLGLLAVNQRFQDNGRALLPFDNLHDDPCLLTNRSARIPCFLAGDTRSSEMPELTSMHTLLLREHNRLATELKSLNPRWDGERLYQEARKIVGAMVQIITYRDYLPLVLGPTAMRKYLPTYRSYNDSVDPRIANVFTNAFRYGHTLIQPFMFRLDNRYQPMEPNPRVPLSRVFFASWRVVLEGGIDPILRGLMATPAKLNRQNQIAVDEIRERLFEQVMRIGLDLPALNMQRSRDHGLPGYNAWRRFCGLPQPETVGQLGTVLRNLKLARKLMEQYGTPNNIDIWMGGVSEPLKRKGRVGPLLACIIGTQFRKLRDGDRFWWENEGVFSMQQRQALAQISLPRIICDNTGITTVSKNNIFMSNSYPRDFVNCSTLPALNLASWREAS


Key:
T96K TREM2 protein = T96K TREM2 protein (UniProt Q9NZC2); experiment: solid-phase binding (SPB) assay; WT, R47H or T96K TREM2 immobilised, MPO in solution (n=5); method not described in the text shown
Purified human MPO = molecular target: T1, Purified human MPO; experiment: SPR

Row | fold affinity over the WT or R47H TREM2 protein (T96K TREM2 protein) [fold] | Kd (Purified human MPO) [µM] | Molecule
1 | 1.3 |  | Purified human MPO (from UniProt P05164 49-745) (ligand)
2 |  | 0.551 | Purified human TREM2 protein (receptor) HNTTVFQGVAGQSLQVSCPYDSMKHWGRRKAWCRQLGEKGPCQRVVSTHNLWLLSFLRRWNGSTAITDDTLGGTLTITLRNLQPHDAGLYQCQSLHGSEADTLRKVLVEVLADPLDHRDAGDLWFPGESESFEDAHVEHSISRSLLEGEIPFPPTSILLLLACIFLIKILAASALWAAAWHGQKPGTHPPSELDCGHDPGYQLQTLPGLRDT
